# In paper PMC9426499:
# What was measured:
# Assay in all cases: SPR
# [1] = test system: ParRC(pCW3) (Clostridium perfringens plasmid pCW3)
# [2] = test system: ParRD(pJIR3118) (Clostridium perfringens plasmid pJIR3118 (CN1020 gDNA))
# [3] = test system: ParRB(pJIR4165) (Clostridium perfringens plasmid pJIR4165)
Sequence,binding signal [1] [RU],binding signal [2] [RU],binding signal [3] [RU]
AAAAAACATCACAATTTTACATAATAGAAA / TTTCTATTATGTAAAATTGTGATGTTTTTTCCTACCCTACGTCCTCCTGC [parCC C16],311,,
AAAATGAAAAAAACATCACAATTTTACGGA / TCCGTAAAATTGTGATGTTTTTTTCATTTTCCTACCCTACGTCCTCCTGC [parCC C5],249,,
AAACATCACAATTTTACGGAAAATGCTTGA / TCAAGCATTTTCCGTAAAATTGTGATGTTTCCTACCCTACGTCCTCCTGC [parCC C6],282,,
AAATAATATCAAATAATATTATTTAATGTC / GACATTAAATAATATTATTTGATATTATTTCCTACCCTACGTCCTCCTGC [parCD D4],,232,
AATATAAAAACATAAACATCACAATTTTAC / GTAAAATTGTGATGTTTATGTTTTTATATTCCTACCCTACGTCCTCCTGC [parCC C11],154,,
AATTAAAAACATCACAATTTTACGTAATGA / TCATTACGTAAAATTGTGATGTTTTTAATTCCTACCCTACGTCCTCCTGC [parCC C1],256,,
ACAATTTTACGTAATTTAGATTTTGCAAGT / ACTTGCAAAATCTAAATTACGTAAAATTGTCCTACCCTACGTCCTCCTGC [parCC C13],48,,
ACATTAAAAGATACTAATTAATATTATTTA / TAAATAATATTAATTAGTATCTTTTAATGTCCTACCCTACGTCCTCCTGC [parCD D12],,250,
AGGTATAAACTCAGTATATACATGATTGAA / TTCAATCATGTATATACTGAGTTTATACCTCCTACCCTACGTCCTCCTGC [parCB B17],,,368
AGGTTATTTAATGTTAAATGATATTAAATA / TATTTAATATCATTTAACATTAAATAACCTCCTACCCTACGTCCTCCTGC [parCD D9],,213,
ATACTAATTAATATTATTTAATTATTGACT / AGTCAATAATTAAATAATATTAATTAGTATCCTACCCTACGTCCTCCTGC [parCD D13],,187,
ATATTAAATAACATTAAAAGATACTAATTA / TAATTAGTATCTTTTAATGTTATTTAATATCCTACCCTACGTCCTCCTGC [parCD D11],,236,
ATCACAATTTTACGTAATGACAGTTTGTTG / CAACAAACTGTCATTACGTAAAATTGTGATCCTACCCTACGTCCTCCTGC [parCC C2],54,,
ATGTTAAATGATATTAAATAACATTAAAAG / CTTTTAATGTTATTTAATATCATTTAACATCCTACCCTACGTCCTCCTGC [parCD D10],,270,
ATTTTACGGAAAATGCTTGATTTAGATTGA / TCAATCTAAATCAAGCATTTTCCGTAAAATCCTACCCTACGTCCTCCTGC [parCC C7],9,,
CATAAACATCACAATTTTACGTAATTTAGA / TCTAAATTACGTAAAATTGTGATGTTTATGCCTACCCTACGTCCTCCTGC [parCC C12],348,,
GAATAATATTAAATAATATCAAATAATATT / AATATTATTTGATATTATTTAATATTATTCCCTACCCTACGTCCTCCTGC [parCD D3],,225,
GTAATTTAGATTTTGCAAGTAAAAAACATC / GATGTTTTTTACTTGCAAAATCTAAATTACCCTACCCTACGTCCTCCTGC [parCC C14],42,,
TAGTATATATCTAGTATATACTAAATTTAT / ATAAATTTAGTATATACTAGATATATACTACCTACCCTACGTCCTCCTGC [parCB B21],,,377
TCACTATATGTATATACTGAATATATACAT / ATGTATATATTCAGTATATACATATAGTGACCTACCCTACGTCCTCCTGC [parCB B2],,,383
TTTATTAATTTCACTATATGTATATACTGA / TCAGTATATACATATAGTGAAATTAATAAACCTACCCTACGTCCTCCTGC [parCB B1],-2.8,1.1,58
TTTTGCAAGTAAAAAACATCACAATTTTAC / GTAAAATTGTGATGTTTTTTACTTGCAAAACCTACCCTACGTCCTCCTGC [parCC C15],217,,
